Source: patent publication US6521594 (dated 2003)
Like-named read-outs stand apart in the source and are kept apart here. Starred links: 1 amine or outer side, 2 acyl side, 3 side chain; linkers in the order of their positions; H or OH if unused. Positions of bridges follow the written chain, without caps; N, C: chain ends. Non-standard residues stand in square brackets, D forms with d. Primed or numbered codes have the meaning given here. No end group written: not given here. *: point of attachment. Tyr(OMe)″ = O-methyl-tyrosine (Y-OMe, TyrOMe, O-Me-Tyr), COc1ccc(C[C@H](N[*:1])C(=O)[*:2])cc1; Tyr(Me) = O-methyl-tyrosine (Y-OMe, O-Me-Tyr), COc1ccc(C[C@H](N[*:1])C(=O)[*:2])cc1; Tyr(nBu) = O-n-butyl-tyrosine, CCCCOc1ccc(C[C@H](N[*:1])C(=O)[*:2])cc1; Cys(β,β-pentamethylene) = O=C([C@@H](N[*:1])C1(S[*:3])CCCCC1)[*:2]; Y‑OMe = O-methyl-tyrosine, COc1ccc(C[C@H](N[*:1])C(=O)[*:2])cc1; Cyclohexylacetyl(1-SH) = O=C(CC1(S)CCCCC1)*; Phe(4-I) = N[C@@H](Cc1ccc(I)cc1)C(=O)O; hPhe = N[C@@H](CCc1ccccc1)C(=O)O; dPen = CC(C)(S)[C@@H](N)C(=O)O; Pen = CC(C)(S)[C@H](N)C(=O)O; code O = not defined here; Tmc = not defined here

Tests used:
Assay in all cases: ELISA
[1] = molecular target: αvβ5
[2] = molecular target: αvβ5; remark: listed apart in the source
[3] = molecular target: T1, Platelet glycoprotein IIb/IIIa (human, UniProt P08514 32-1039; P05106 27-788)
[4] = molecular target: T1, Platelet glycoprotein IIb/IIIa; remark: listed apart in the source
[5] = molecular target: αvβ5; remark: listed apart in the source
[6] = molecular target: αvβ5; remark: listed apart in the source
[7] = molecular target: αvβ5; remark: listed apart in the source
[8] = molecular target: T2, Fibronectin receptor (human, UniProt P08648 42-1049; P05556 21-798)
T2 sequence (P08648 42-1049, chain 1 of 2): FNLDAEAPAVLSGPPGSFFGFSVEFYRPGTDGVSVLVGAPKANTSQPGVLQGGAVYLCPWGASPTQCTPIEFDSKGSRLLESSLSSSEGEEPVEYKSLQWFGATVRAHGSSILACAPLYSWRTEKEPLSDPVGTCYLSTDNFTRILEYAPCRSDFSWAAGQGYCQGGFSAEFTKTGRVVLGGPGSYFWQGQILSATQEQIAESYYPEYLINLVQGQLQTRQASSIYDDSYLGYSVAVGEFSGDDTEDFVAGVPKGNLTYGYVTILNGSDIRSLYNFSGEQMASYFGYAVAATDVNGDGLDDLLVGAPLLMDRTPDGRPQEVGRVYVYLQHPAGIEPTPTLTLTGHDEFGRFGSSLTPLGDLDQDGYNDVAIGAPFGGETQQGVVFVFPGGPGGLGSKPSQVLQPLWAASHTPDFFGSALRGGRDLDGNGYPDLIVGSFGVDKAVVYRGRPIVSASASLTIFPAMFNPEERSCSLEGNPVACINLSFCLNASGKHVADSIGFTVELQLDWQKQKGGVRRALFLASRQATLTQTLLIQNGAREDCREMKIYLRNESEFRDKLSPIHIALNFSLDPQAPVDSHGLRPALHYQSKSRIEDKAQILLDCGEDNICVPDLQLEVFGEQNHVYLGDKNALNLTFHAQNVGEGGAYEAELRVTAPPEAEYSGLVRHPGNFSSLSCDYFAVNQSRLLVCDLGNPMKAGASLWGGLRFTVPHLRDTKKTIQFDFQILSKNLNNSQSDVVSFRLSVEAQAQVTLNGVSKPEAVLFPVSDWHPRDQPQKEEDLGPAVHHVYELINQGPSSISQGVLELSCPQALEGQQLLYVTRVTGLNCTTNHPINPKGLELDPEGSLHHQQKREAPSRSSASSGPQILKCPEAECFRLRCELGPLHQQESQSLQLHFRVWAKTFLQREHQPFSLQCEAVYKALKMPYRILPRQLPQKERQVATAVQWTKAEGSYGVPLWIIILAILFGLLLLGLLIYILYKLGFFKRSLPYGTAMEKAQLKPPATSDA
T2 sequence (P05556 21-798, chain 2 of 2): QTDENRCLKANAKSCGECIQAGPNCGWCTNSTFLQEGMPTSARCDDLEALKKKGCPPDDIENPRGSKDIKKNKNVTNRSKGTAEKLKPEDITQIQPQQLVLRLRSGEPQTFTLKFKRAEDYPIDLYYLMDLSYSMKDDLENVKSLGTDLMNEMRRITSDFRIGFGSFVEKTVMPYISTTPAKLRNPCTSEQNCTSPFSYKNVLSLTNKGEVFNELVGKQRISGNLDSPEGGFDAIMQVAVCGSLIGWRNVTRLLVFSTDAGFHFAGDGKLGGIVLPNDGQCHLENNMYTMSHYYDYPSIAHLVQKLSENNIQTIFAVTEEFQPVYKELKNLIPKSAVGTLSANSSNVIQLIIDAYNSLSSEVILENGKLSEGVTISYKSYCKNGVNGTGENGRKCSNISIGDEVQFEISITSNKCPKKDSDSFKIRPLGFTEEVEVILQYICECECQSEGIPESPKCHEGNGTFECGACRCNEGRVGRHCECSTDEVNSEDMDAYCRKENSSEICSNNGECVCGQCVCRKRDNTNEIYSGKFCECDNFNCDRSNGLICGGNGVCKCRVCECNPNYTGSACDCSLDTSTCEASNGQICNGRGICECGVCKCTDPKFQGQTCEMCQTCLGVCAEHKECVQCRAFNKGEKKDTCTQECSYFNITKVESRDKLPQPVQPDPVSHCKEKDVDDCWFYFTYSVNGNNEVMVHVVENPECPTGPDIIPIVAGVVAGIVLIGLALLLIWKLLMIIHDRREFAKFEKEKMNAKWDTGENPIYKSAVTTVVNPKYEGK

[9] = molecular target: T2, Fibronectin receptor; remark: listed apart in the source
[10] = molecular target: T2, Fibronectin receptor; remark: listed apart in the source
[11] = molecular target: T1, Platelet glycoprotein IIb/IIIa; remark: listed apart in the source

B1: R(Pmc)GHRGDLRCR (peptide)
peptide: R[Cys(β,β-pentamethylene)]GHRGDLRCR
modifications: disulfide 2-10 (inferred); also: D,L-Pmc mixture at 2
**Q.** Which results are given for B1?
**A.** IC50 [1]: 1.58 µM; IC50 [2]: 1.58 µM

B2: R(Pmc)GHRGD(Hpa)RCR (peptide)
peptide: R[Cys(β,β-pentamethylene)]GHRGD[hPhe]RCR
modifications: disulfide 2-10; also: Pmc2 from Boc-D/L-Pmc, configuration not given here
**Q.** How did the IC50 [2] turn out when B2 was run?
**A.** The IC50 was 4.25 µM.

B3: R(D-Pen)GHRGDLRCR (peptide)
peptide: R[dPen]GHRGDLRCR
modifications: disulfide 2-10
**Q.** With B3 as the binder, how does the IC50 [1] read?
**A.** The IC50 was 10 µM.

B4: R(Pmc)GHRGDFRCR (peptide)
peptide: R[Cys(β,β-pentamethylene)]GHRGDFRCR
modifications: disulfide 2-10
**Q.** Which IC50 [3] does the source give for B4 here?
**A.** Its IC50 is 0.04 µM.

B5: R(Pmc)GHRGD(O-n-butyl-Tyr)RCR (peptide)
peptide: R[Cys(β,β-pentamethylene)]GHRGD[Tyr(nBu)]RCR
modifications: disulfide 2-10; also: Pmc from Boc-D/L-Pmc, isomer not given here
**Q.** Which IC50 [3] does the source give for B5 here?
**A.** Its IC50 is 0.03 µM.

B6: G(D-Pen)GHRGDLRCA (peptide)
peptide: G[dPen]GHRGDLRCA
modifications: disulfide 2-10
**Q.** How did the IC50 [1] turn out when B6 was run?
**A.** The IC50 was 5.27 µM.

B7: R(Tmc)GHRGDLRCR (peptide)
peptide: R[Tmc]GHRGDLRCR
modifications: disulfide (positions not given here); reading uncertain; also: Tmc2 as D,L mixture of diastereomers, printed as R(Tmc)GHRGDLRCR
**Q.** With B7 as the binder, how does the IC50 [4] read?
**A.** Its IC50 is 0.03 µM.

B8: Ac-CNPRGD(Y-OMe)(Cit)C-NH2 (peptide)
peptide: CNPRGDXXC
modifications: N-terminal acetyl; O-Me-Tyr at 7; Cit at 8; C-terminal amide
**Q.** B8 was tested. Which IC50 [5] did it give?
**A.** The IC50 was 3.46 µM.

B9: R(Pen)GHRGDLRCR (peptide)
peptide: R[Pen]GHRGDLRCR
modifications: disulfide 2-10
**Q.** With B9 as the binder, how does the IC50 [4] read?
**A.** Its IC50 is 0.04 µM.

**Q.** And the IC50 [1]?
**A.** Its IC50 is 4.93 µM.

B10: R(Pmc)GHRGD(Y-OMe)RCR (peptide)
peptide: R[Cys(β,β-pentamethylene)]GHRGD[Tyr(Me)]RCR
modifications: disulfide 2-10; also: Pmc2 made from D,L-Pmc, configuration not given here
**Q.** Which IC50 [6] does the source give for B10 here?
**A.** Its IC50 is 1.05 µM.

**Q.** What about the IC50 [2] of the same binder?
**A.** Its IC50 is 1.05 µM.

**Q.** What about the IC50 [7] of the same binder?
**A.** The IC50 was 1.05 µM.

B11: R(Pmc)GHRGD(p-I-F)RCR (peptide)
peptide: R[Cys(β,β-pentamethylene)]GHRGD[Phe(4-I)]RCR
modifications: disulfide 2-10; also: Pmc2 from Boc-D/L-Pmc
**Q.** Which results are given for B11?
**A.** IC50 [3]: 0.01 µM; IC50 [8]: 4.19 µM; IC50 [2]: 4.03 µM

B12: R(Pmc)GHRGD(O-Me-Tyr)RCR (peptide)
peptide: R[Cys(β,β-pentamethylene)]GHRGD[Tyr(Me)]RCR
modifications: disulfide 2-10; also: Pmc2 made from D,L-Pmc, configuration not given here
**Q.** For B12, which IC50 [9] is on record?
**A.** Its IC50 is 0.98 µM.

**Q.** What about the IC50 [8] of the same binder?
**A.** Its IC50 is 0.98 µM.

**Q.** And the IC50 [10]?
**A.** Its IC50 is 0.98 µM.

B13: Ac-CNPRGD(Y-OMe)EC-NH2 (peptide)
peptide: Ac-CNPRGD[Tyr(OMe)″]EC-NH2
modifications: disulfide 1-9
**Q.** How did the IC50 [5] turn out when B13 was run?
**A.** The IC50 was 9.47 µM.

B14: Ac-CNPRGD(Y-OMe)OC-NH2 (peptide)
peptide: Ac-CNPRGD[Y‑OMe][code O]C-NH2
modifications: disulfide 1-9 (inferred); reading uncertain
**Q.** Which IC50 [5] does the source give for B14 here?
**A.** Its IC50 is 7.7 µM.

**Q.** What about the IC50 [11] of the same binder?
**A.** Its IC50 is 0.05 µM.

B15: Ac-CNPRGD(Y-OMe)KC-NH2 (peptide)
peptide: Ac-CNPRGD[Tyr(OMe)″]KC-NH2
modifications: disulfide 1-9
**Q.** How did the IC50 [5] turn out when B15 was run?
**A.** The IC50 was 5.82 µM.

B16: G(Pen)GHRGDLRCA (peptide)
peptide: G[Pen]GHRGDLRCA
modifications: disulfide 2-10
**Q.** B16 was tested. Which IC50 [1] did it give?
**A.** Its IC50 is 8.26 µM.

B17: (Pmp)GHRGDLRCA (peptide)
peptide: [Cyclohexylacetyl(1-SH)]GHRGDLRCA
modifications: disulfide 1-9 (inferred)
**Q.** B17 was tested. Which IC50 [4] did it give?
**A.** Its IC50 is 0.02 µM.
